# From patent US20110142830A1
# Biological target: sSortilin, Q99523
# Assay: SPR
# Conditions: modification not given
# Sequence of sSortilin, Q99523 (Q99523 78-755): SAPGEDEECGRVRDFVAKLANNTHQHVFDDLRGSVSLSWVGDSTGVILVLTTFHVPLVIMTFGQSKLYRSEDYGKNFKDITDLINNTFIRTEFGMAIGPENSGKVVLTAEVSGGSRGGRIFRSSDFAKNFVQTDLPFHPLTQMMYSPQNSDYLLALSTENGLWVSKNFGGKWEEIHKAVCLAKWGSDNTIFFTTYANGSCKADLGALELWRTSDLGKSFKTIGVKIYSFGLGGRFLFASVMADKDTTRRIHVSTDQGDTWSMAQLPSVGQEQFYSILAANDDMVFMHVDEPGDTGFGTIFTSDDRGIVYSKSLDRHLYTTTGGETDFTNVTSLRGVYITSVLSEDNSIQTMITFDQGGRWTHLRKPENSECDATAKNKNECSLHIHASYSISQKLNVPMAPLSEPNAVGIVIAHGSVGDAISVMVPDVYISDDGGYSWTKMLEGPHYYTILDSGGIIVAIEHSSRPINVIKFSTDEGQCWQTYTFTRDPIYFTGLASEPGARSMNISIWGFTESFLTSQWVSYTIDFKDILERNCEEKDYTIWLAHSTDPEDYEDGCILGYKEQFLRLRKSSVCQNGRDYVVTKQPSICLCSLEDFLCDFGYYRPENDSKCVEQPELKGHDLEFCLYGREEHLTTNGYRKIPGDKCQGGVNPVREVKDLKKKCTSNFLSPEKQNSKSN
binder,measurement,value
RRPYIL [NT8-13],EC50,460 nM
